Data set [1] deals with the molecule itself. In words: cryo-EM structure; αB-AXA fibrils elongated at room temperature for about four weeks, dialysed (1 MDa m.w.c.o.), 0.5 mg/mL; helical and local refinement with D2 symmetry, 3.4 Å.
Data set [2] deals with the molecule itself. Put plainly: SEC + other: negative-stain electron microscopy; Superose-6 24 mL column; peak fractions examined by negative-stain EM with 2D class averaging; 20 mM HEPES pH 7.4, 150 mM NaCl, 1 mM EDTA.

B1: human αB-crystallin NT-AXA variant (natural protein, UniProt P02511 1-175, looked up)
chain: MDAAAHHPWIRRPFFPFHSPSRLFDQFFGEHLLESDLFPTSTSLSPFYLRPPSFLRAPSWFDTGLSEMRLEKDRFSVNLDVKHFSPEELKVKVLGDVIEVHGKHEERQDEHGFISREFHRKYRIPADVDPLTITSSLSSDGVLTVNGPRKQVSGPERTIPITREEKPAVTAAPKK
notes: human αB-crystallin (HSPB5, CRYAB), 20.2 kDa subunit; The cryo-EM model covers residues 75-161; the last 14 residues are not modelled; also called αB-AXA; source: E. coli BL21, purified (Sephacryl 300 SEC, MonoQ ion exchange), no purification tags
As to B1, the binding result in data set [1] is recorded as “binds”.

B2: human wildtype αB-crystallin (natural protein, UniProt P02511 1-175, looked up)
chain: MDIAIHHPWIRRPFFPFHSPSRLFDQFFGEHLLESDLFPTSTSLSPFYLRPPSFLRAPSWFDTGLSEMRLEKDRFSVNLDVKHFSPEELKVKVLGDVIEVHGKHEERQDEHGFISREFHRKYRIPADVDPLTITSSLSSDGVLTVNGPRKQVSGPERTIPITREEKPAVTAAPKK
notes: human αB-crystallin (HSPB5, CRYAB), 20.2 kDa subunit; pET plasmid containing the human αB-crystallin gene; Polydisperse cage-like oligomers; also called αB-wt; αB-WT; source: E. coli BL21, purified (Sephacryl 300 SEC, MonoQ ion exchange), no purification tags
Regarding B2, the binding result in data set [2] is on record as “binds”.

These data come from paper doi:10.1101/2024.03.22.586355, “Dynamic fibrillar assembly of αB-crystallin induced by perturbation of the conserved NT-IXI motif resolved by cryo-EM” (bioRxiv, 2024).
